Measurements as given in article PMC4643126, “On the Ancestral UDP-Glucose Pyrophosphorylase Activity of GalF from Escherichia coli” (Frontiers in Microbiology, 2015).
Numbering of substitutions follows the chain as printed. In names and notes the source's numbering stands.

B1: GalU (UDP-glucose pyrophosphorylase) from Escherichia coli (enzyme, Escherichia coli K-12, UniProt P0AEP3 1-302, looked up)
chain: MAAINTKVKKAVIPVAGLGTRMLPATKAIPKEMLPLVDKPLIQYVVNECIAAGITEIVLVTHSSKNSIENHFDTSFELEAMLEKRVKRQLLDEVQSICPPHVTIMQVRQGLAKGLGHAVLCAHPVVGDEPVAVILPDVILDEYESDLSQDNLAEMIRRFDETGHSQIMVEPVADVTAYGVVDCKGVELAPGESVPMVGVVEKPKADVAPSNLAIVGRYVLSADIWPLLAKTPPGAGDEIQLTDAIDMLIEKETVEAYHMKGKSHDCGNKLGYMQAFVEYGIRHNTLGTEFKAWLEEEMGIKK
notes: GalU, E. coli K-12, gene galU (909 bp) amplified from genomic DNA, codes for 302 amino acids; expressed from pET28c as an untagged protein; also called UDP-Glc PPase; UTP:glucose-1-phosphate uridylyltransferase; source: E. coli BL21 Star (DE3), purified (DEAE-Sepharose)
B2: GalU_(T20M/R21H) (enzyme, Escherichia coli K-12, UniProt P0AEP3 1-302, looked up)
chain: B1 chain with T20M, R21H
notes: GalU, E. coli K-12, 302 amino acids, untagged, with T20M and R21H; Mutagenesis on the plasmid of the wild-type enzyme; also called GalU T20M/R21H double mutant; source: E. coli BL21 Star (DE3), purified (DEAE-Sepharose)
B3: GalU_(K202A) (enzyme, Escherichia coli K-12, UniProt P0AEP3 1-302, looked up)
chain: B1 chain with K202A
notes: GalU, E. coli K-12, 302 amino acids, untagged, with K202A; Mutagenesis on the plasmid of the wild-type enzyme; source: E. coli BL21 Star (DE3), purified (DEAE-Sepharose)

Target: the molecule itself
Assay: SEC; gel filtration of the purified protein on Superdex 200 HR 10/30 in 25 mM Tris-HCl pH 8.0, 100 mM NaCl, 0.1 mM EDTA; mass from a calibration plot of standards

Row | Protein | stoichiometry N
1 | B1 | 4
2 | B2 | 4
3 | B3 | 4
